In publication PMC4778762, “Acetylation of Lysine 201 Inhibits the DNA-Binding Ability of PhoP to Regulate Salmonella Virulence”:
Numbering of substitutions follows the chain as printed.

B1: PhoP box of phoP promoter (dsDNA)
DNA 1: GGGGTCTGGTTTATTAACTGTTTATCCGGGG
DNA 2: CCCCGGATAAACAGTTAATAAACCAGACCCC

Key:
[1] = target: T1, PhoP K201A K201A (Salmonella enterica serovar Typhimurium) (UniProt D0ZV90); assay: EMSA; details: EMSA: 25 mM Tris-HCl pH 8.0, 50 mM KCl, 0.5 mM EDTA, 10% glycerol, 37 C 30 min, gel at 4 C; SPR: Biacore 2000, streptavidin chip, buffer not given
T1 sequence: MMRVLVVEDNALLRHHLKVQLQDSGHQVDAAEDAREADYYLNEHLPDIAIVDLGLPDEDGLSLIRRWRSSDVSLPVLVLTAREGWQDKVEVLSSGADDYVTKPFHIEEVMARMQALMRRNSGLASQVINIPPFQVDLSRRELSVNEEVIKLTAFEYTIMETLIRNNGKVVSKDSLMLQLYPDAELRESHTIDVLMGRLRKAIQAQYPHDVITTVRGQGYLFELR

[2] = target: T2, PhoP K201Q K201Q (Salmonella enterica serovar Typhimurium) (UniProt D0ZV90); assay: EMSA; details: EMSA: 25 mM Tris-HCl pH 8.0, 50 mM KCl, 0.5 mM EDTA, 10% glycerol, 37 C 30 min, gel at 4 C; SPR: Biacore 2000, streptavidin chip, buffer not given
T2 sequence: T1 sequence with A201Q

[3] = target: T3, PhoP K201R K201R (Salmonella enterica serovar Typhimurium) (UniProt D0ZV90); assay: EMSA; details: EMSA: 25 mM Tris-HCl pH 8.0, 50 mM KCl, 0.5 mM EDTA, 10% glycerol, 37 C 30 min, gel at 4 C; SPR: Biacore 2000, streptavidin chip, buffer not given
T3 sequence: T1 sequence with A201R

[4] = target: T4, PhoP WT (Salmonella enterica serovar Typhimurium) (UniProt D0ZV90); assay: EMSA; details: EMSA: 25 mM Tris-HCl pH 8.0, 50 mM KCl, 0.5 mM EDTA, 10% glycerol, 37 C 30 min, gel at 4 C; SPR: Biacore 2000, streptavidin chip, buffer not given
T4 sequence: T1 sequence with A201K

PhoP WT = PhoP WT (Salmonella enterica serovar Typhimurium, UniProt D0ZV90 1-224); assay: SPR; 0.3-1 uM PhoP; response 2.3-fold (0.6 uM) and 4.0-fold (1 uM) of that at 0.3 uM; EMSA: 25 mM Tris-HCl pH 8.0, 50 mM KCl, 0.5 mM EDTA, 10% glycerol, 37 C 30 min, gel at 4 C; SPR: Biacore 2000, streptavidin chip, buffer not given; details: protein: recombinant; tags: C-terminal 6xHis; chain copies: 2; label: 5'-biotin on strand 1; blunt

Row | Molecule | binding [1] | binding [2] | binding [3] | binding [4] | binding result (PhoP WT)
1 | ATCCTCTACAACCAGTACGCGCATCATCTCTTCTCCCTTGTGTTAACAATAAGAACAGTCTAGCGTTGATTATGGTGCTTTGGGGATAAACAGTTAATAAACCAGACAAATAGTCACCCTCTTTCTGAAGAAAAGAGGGTGAGGCAGGCATTATTTAAGTTCGTCGACCAGAGTCACAGCGCGA (double strand) [phoP promoter 184 bp] | binds more weakly | binds more weakly | binds | binds | 
2 | B1 |  |  |  |  | binds
